Experimental data as given in paper PMC3326312.

Columns and labels:
[1] = biological target: T1, core RNA polymerase (wild type) (Escherichia coli, UniProt P0A7Z4;P0A8V2;P0A8T7 1-329;1-1342;1-1407); test: KMnO4 footprinting
[2] = biological target: T2, core RNA polymerase (wild type);sigma70 (Escherichia coli;Escherichia coli, UniProt P0A7Z4;P0A8V2;P0A8T7;P00579 1-329;1-1342;1-1407;1-613, |); test: KMnO4 footprinting
[3] = biological target: T2, core RNA polymerase (wild type);sigma70; test: ExoIII footprinting
[4] = biological target: T1, core RNA polymerase (wild type); test: ExoIII footprinting
[5] = biological target: core RNA polymerase (wild type);sigma70 fragment 1-448 (Escherichia coli;Escherichia coli, UniProt P0A7Z4;P0A8V2;P0A8T7;P00579 1-329;1-1342;1-1407;1-448, |); test: ExoIII footprinting

T2 sequence (P0A7Z4 whole entry, chain 1 of 3): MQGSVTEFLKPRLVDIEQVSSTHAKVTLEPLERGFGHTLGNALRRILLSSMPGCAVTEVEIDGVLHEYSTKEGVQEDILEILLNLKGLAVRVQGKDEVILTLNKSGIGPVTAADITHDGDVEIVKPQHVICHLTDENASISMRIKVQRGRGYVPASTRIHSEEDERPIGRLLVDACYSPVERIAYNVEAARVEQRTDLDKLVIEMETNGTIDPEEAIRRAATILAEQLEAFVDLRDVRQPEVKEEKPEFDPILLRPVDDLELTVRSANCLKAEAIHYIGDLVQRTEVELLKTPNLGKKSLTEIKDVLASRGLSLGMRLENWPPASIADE
T2 sequence (P0A8V2 whole entry, chain 2 of 3): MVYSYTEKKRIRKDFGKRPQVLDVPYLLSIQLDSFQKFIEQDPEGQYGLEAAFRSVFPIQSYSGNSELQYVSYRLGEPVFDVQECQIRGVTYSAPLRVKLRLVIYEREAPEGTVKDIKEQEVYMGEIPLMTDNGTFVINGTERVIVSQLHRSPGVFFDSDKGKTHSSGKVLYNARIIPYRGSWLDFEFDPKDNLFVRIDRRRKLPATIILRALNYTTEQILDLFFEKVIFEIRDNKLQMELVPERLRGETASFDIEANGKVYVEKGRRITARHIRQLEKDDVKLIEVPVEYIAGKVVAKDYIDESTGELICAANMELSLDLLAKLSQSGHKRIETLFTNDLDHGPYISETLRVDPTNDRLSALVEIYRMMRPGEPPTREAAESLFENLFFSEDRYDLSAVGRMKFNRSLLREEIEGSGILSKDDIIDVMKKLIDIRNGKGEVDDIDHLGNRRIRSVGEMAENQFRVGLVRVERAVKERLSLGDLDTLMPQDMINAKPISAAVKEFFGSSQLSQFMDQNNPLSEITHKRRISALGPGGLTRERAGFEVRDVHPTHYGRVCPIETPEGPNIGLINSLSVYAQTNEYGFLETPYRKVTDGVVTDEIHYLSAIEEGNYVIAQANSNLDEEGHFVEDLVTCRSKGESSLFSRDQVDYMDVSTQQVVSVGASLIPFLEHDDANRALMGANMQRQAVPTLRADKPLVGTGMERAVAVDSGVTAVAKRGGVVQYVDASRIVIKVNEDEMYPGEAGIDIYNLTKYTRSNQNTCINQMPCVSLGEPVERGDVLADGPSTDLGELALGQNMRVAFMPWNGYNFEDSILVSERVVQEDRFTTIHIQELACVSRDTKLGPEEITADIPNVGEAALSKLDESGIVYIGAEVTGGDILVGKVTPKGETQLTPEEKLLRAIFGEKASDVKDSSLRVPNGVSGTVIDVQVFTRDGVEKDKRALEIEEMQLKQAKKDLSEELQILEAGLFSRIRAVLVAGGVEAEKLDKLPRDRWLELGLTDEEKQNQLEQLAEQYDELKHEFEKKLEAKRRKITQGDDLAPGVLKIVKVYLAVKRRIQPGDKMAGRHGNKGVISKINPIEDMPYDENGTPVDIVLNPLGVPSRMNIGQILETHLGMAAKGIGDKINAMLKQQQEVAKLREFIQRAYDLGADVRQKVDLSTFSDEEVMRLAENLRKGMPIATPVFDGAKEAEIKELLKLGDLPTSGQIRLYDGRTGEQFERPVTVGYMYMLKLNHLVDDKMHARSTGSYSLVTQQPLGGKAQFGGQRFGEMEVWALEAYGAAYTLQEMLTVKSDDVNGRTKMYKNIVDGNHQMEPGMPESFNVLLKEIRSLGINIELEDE
T2 sequence (P00579 whole entry, chain 4 of 3): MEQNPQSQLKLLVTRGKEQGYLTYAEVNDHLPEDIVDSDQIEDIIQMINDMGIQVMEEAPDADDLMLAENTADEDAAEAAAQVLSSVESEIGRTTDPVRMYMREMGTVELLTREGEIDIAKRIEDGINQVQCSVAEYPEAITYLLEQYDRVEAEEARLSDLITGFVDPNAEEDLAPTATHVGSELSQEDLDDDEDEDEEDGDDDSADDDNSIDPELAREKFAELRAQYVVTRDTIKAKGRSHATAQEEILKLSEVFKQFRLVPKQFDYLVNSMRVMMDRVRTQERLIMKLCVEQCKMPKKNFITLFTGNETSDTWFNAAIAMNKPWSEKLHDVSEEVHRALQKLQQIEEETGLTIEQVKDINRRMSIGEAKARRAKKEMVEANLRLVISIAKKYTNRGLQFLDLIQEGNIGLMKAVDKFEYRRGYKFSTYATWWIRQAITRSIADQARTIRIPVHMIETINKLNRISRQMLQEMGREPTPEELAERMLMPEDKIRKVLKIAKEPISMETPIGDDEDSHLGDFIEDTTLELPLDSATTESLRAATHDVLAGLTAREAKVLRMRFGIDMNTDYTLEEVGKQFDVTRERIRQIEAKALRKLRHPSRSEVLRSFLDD
T1 sequence (P0A7Z4 whole entry, chain 1 of 2): as the sequence (P0A7Z4 whole entry, chain 1 of 3) above
T1 sequence (P0A8V2 whole entry, chain 2 of 2): as the sequence (P0A8V2 whole entry, chain 2 of 3) above

| Binder | binding result [1] | binding result [2] | binding result [3] | binding result [4] | binding result [5] |
| --- | --- | --- | --- | --- | --- |
| Cons scaffold, 20-mer RNA (mixed) DNA 1: AGGATACTTAGTGCTATAATGAGCGGATCGCATGTTCACACAGGAAACAGCTGATTGCCC DNA 2: GGGCAATCAGCTGTTTCCTGTGTGAACATGCGATCCGCTCATTATAGCACTAAGTATCCT RNA: AUCACGAUAAAUGAGCGGAU | binds | binds |  |  |  |
| Cons_up scaffold, 20-mer RNA (mixed) DNA 1: CAGTGAATTCAGGATACTTAGTGCTATAATGAGCGGATCGCATGTTCACACAGGAAACAGCTGATTGCCC DNA 2: GGGCAATCAGCTGTTTCCTGTGTGAACATGCGATCCGCTCATTATAGCACTAAGTATCCTGAATTCACTG RNA: AUCACGAUAAAUGAGCGGAU |  |  | binds | binds | binds |
